Data reported in patent US20220017591A1 (AstraZeneca / MedImmune, published 2022).

Assays:
Test in all cases: cell-based or functional assay
human RXFP1 [1] = target: T1, human RXFP1 (human, UniProt Q9HBX9 1-757)
T1 sequence (looked up): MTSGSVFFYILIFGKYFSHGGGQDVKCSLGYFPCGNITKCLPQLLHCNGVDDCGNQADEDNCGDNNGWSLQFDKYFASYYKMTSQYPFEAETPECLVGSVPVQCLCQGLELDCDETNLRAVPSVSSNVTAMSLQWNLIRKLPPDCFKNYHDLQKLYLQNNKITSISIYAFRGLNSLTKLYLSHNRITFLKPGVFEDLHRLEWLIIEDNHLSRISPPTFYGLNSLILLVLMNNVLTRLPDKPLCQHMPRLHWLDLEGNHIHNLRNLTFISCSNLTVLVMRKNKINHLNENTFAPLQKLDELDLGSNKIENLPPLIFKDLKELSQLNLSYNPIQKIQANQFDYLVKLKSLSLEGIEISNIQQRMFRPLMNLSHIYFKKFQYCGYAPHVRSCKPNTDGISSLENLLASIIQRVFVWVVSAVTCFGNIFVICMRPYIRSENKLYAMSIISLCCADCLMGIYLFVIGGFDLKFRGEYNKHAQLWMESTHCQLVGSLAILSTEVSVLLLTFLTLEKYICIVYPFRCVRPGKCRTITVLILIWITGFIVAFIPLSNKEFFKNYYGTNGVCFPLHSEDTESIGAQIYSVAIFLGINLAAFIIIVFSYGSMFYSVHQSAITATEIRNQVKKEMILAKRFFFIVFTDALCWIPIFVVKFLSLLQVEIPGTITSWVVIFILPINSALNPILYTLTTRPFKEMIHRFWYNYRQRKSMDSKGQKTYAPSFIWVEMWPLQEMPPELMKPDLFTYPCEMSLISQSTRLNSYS

human RXFP2 = human RXFP2 (human, UniProt Q8WXD0 1-754)
Chain of human RXFP2 (Q8WXD0 whole entry): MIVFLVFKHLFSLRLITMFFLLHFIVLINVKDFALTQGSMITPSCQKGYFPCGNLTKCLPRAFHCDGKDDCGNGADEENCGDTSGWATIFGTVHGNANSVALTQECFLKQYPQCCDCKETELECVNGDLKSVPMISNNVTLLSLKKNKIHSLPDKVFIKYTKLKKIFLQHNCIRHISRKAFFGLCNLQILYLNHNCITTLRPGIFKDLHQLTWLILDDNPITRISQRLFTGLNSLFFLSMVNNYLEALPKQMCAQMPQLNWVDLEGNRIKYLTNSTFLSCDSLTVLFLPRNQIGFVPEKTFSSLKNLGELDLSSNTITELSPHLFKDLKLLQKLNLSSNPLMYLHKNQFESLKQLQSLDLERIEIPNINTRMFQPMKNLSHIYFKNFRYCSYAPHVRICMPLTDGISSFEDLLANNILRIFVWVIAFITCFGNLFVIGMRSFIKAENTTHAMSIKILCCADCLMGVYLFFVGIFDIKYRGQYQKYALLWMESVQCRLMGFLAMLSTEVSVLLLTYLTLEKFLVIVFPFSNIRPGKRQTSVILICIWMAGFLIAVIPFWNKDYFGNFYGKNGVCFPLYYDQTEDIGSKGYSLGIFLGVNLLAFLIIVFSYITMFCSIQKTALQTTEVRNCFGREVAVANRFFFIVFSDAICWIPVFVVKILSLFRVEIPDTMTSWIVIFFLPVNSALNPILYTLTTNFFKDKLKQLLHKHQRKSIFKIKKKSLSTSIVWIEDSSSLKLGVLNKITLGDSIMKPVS

mouse RXFP1 = target: T2, mouse RXFP1 (mouse, UniProt Q6R6I7 1-758)
T2 sequence (looked up): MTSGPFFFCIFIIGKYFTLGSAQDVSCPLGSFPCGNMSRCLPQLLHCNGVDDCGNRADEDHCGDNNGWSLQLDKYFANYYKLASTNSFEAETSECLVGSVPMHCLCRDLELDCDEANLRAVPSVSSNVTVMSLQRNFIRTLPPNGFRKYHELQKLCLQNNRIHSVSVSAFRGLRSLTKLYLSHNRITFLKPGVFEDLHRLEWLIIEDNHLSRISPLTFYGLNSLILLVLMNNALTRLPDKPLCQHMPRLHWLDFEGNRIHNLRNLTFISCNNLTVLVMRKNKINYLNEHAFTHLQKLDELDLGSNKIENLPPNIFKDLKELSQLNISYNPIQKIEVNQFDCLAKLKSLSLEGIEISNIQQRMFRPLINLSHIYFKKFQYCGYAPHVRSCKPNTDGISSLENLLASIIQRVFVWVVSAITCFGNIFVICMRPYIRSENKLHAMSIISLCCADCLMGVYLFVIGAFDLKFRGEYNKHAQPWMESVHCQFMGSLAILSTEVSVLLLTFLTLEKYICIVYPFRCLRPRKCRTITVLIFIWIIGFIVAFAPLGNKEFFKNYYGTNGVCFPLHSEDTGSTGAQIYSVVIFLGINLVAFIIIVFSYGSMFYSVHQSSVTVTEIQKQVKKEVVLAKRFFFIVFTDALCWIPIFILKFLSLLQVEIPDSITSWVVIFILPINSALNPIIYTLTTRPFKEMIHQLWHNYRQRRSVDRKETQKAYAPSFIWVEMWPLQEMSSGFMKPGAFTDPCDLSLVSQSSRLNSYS

human RXFP1 [2] = target: T1, human RXFP1; remark: listed apart in the source

B1: RELAX0117 (Fc fusion)
chain 1: QLYSALANKCCHVGCTKRSLARFCAAAGGGGSGGGGSGGGGSGGGGSACPPCPAPEFEGGPSVFLFPPKPKDTLMISRTPEVTCVVVDVSHEDPEVKFNWYVDGVEVHNAKTKPREEQYNSTYRVVSVLTVLHQDWLNGKEYKCKVSNKALPASIEKTISKAKGQPREPQVYTLPPCREEMTKNQVSLWCLVKGFYPSDIAVEWESNGQPENNYKTTPPVLDSDGSFFLYSKLTVDKSRWQQGNVFSCSVMHEALHNHYTQKSLSLSPGGGGGSGGGGSGGGGSGGGGGSQLYSALANKCCHVGCTKRSLARFC
chain 2: SWMEEVIKLCGRELVRAQIAICGMSTWSAAAGGGGSGGGGSGGGGSGGGGSACPPCPAPEFEGGPSVFLFPPKPKDTLMISRTPEVTCVVVDVSHEDPEVKFNWYVDGVEVHNAKTKPREEQYNSTYRVVSVLTVLHQDWLNGKEYKCKVSNKALPASIEKTISKAKGQPREPQVCTLPPSREEMTKNQVSLSCAVKGFYPSDIAVEWESNGQPENNYKTTPPVLDSDGSFFLVSKLTVDKSRWQQGNVFSCSVMHEALHNHYTQKSLSLSPGGGGGSGGGGSGGGGSGGGGGSSWMEEVIKLCGRELVRAQIAICGMSTWS
- EC50 hRXFP1 (M), cAMP assay (human RXFP1 [1]): 1.06e-11 M
- EC50 hRXFP2 (M), cAMP assay (human RXFP2): 1.61e-08 M
- EC50 mRXFP1 (M), cAMP assay (mouse RXFP1): 1.74e-11 M
- biological activity (EC50), cAMP assay (human RXFP1 [2]): ~10 pM
